The text below walks through data of the supplement of paper PMC11246515.

± gives the standard deviation of the averaged measurements.

The data set is described as follows: total protein half-life in vivo (active degradation + dilution); higher = more stable protein.
The mark [1] stands for this setting: E. coli NCM3722 delta-clpP delta-lon delta-hslV, growth: N-lim chemostat, doubling time 6 h.
[2] abbreviates: E. coli NCM3722 delta-clpP, growth: N-lim chemostat, doubling time 6 h.
Where [3] appears, read: E. coli NCM3722 delta-lon, growth: N-lim chemostat, doubling time 6 h.
The mark [4] stands for this setting: E. coli NCM3722 delta-smpB, growth: N-lim chemostat, doubling time 6 h.
Setting [5] is: wild type E. coli NCM3722, growth: C-lim chemostat, doubling time 3 h.
The mark [6] stands for this setting: wild type E. coli NCM3722, growth: C-lim chemostat, doubling time 6 h.
Setting [7] is: wild type E. coli NCM3722, growth: C-lim chemostat, doubling time 12 h.
Setting [8] is: wild type E. coli NCM3722, growth: N-lim chemostat, doubling time 6 h.
Where [9] appears, read: wild type E. coli NCM3722, growth: N-lim chemostat, doubling time 12 h.
Where [10] appears, read: wild type E. coli NCM3722, growth: P-lim chemostat, doubling time 6 h.
[11] abbreviates: wild type E. coli NCM3722, growth: P-lim chemostat, doubling time 12 h.
[12] abbreviates: E. coli NCM3722 delta-hslV, growth: N-lim chemostat, doubling time 6 h.

As for “MALLDFFLSRKKNTANIAKERLQIIVAERRRSDAEPHYLPQLRKDILEVICKYVQIDPEMVTVQLEQKDGDISILELNVTLPEAEELK [P0A734]”, the “total protein half-life in vivo” value is, setting by setting: under setting [1], 5.76 ± 0.51 h; under setting [2], 4.57 ± 0.13 h; under setting [3], 3.791 ± 0.018 h; under setting [4], 4.06 ± 0.14 h; under setting [5], 2.736 ± 0.016 h; under setting [6], 4.59 ± 0.27 h. Also, the “total protein half-life in vivo” value under setting [7] is 6.36 ± 0.066 h; the “total protein half-life in vivo” value under setting [8] stood at 3.626 ± 0.022 h; the “total protein half-life in vivo” value under setting [9] came out at 6.22 ± 0.13 h; the “total protein half-life in vivo” value under setting [10] is 4.14 ± 1.5 h; the “total protein half-life in vivo” value under setting [11] worked out at 8.17 ± 0.36 h.
As for “MPKKNEAPASFEKALSELEQIVTRLESGDLPLEEALNEFERGVQLARQGQAKLQQAEQRVQILLSDNEDASLTPFTPDNE [P0A8G9]”, the “total protein half-life in vivo” value by setting is: under setting [1], 7.56 h; under setting [2], 5.9 h; under setting [12], 6.62 h; under setting [6], 6.16 ± 0.35 h; under setting [7], 14.4 h; under setting [8], 5.09 ± 0.59 h. Besides, the “total protein half-life in vivo” value by setting is: under setting [10], 4.86 ± 0.049 h; under setting [11], 14.2 ± 1.7 h.
Regarding “MMKTVKHLLCCAIAASALISTGVHAASWKDALSSAASELGNQNSTTQEGGWSLASLTNLLSSGNQALSADNMNNAAGILQYCAKQKLASVTDAENIKNQVLEKLGLNSEEQKEDTNYLDGIQGLLKTKDGQQLNLDNIGTTPLAEKVKTKACDLVLKQGLNFIS”, the “total protein half-life in vivo” value runs as follows: under setting [1], 2.77 ± 0.018 h; under setting [2], 2.37 h; under setting [12], 2.68 h; under setting [3], 3.02 ± 0.12 h; under setting [4], 2.56 ± 0.057 h; under setting [5], 2.22 ± 0.24 h. Besides, the “total protein half-life in vivo” value under setting [6] was found to be 3.873 ± 0.035 h; the “total protein half-life in vivo” value under setting [7] is 3.5 h; the “total protein half-life in vivo” value under setting [8] was determined as 2.1 h; the “total protein half-life in vivo” value under setting [10] turned out to be 3.43 h; the “total protein half-life in vivo” value under setting [11] worked out at 3.72 ± 0.56 h.
Take “MNTLTFLLSTVIELYTMVLLLRIWMQWAHCDFYNPFSQFVVKVTQPIIGPLRRVIPAMGPIDSASLLVAYILSFIKAIVLFKVVTFLPIIWIAGLLILLKTIGLLIFWVLLVMAIMSWVSQGRSPIEYVLIQLADPLLRPIRRLLPAMGGIDFSPMILVLLLYVINMGVAEVLQATGNMLLPGLWMAL”: the “total protein half-life in vivo” value is, setting by setting: under setting [1], 6.46 h; under setting [12], 5.6 h; under setting [3], 6.12 h; under setting [5], 2.92 h; under setting [7], 10.6 h; under setting [10], 5.07 h. Under setting [11], the “total protein half-life in vivo” value stood at 8.69 h.
As for “MSLAKDNIWKLLAPLVVMGVMFLIPVPDGMPPQAWHYFAVFVAMIVGMILEPIPATAISFIAVTICVIGSNYLLFDAKELADPAFNAQKQALKWGLAGFSSTTVWLVFGAFIFALGYEVSGLGRRIALFLVKFMGKRTLTLGYAIVIIDILLAPFTPSNTARTGGTVFPVIKNLPPLFKSFPNDPSARRIGGYLMWMMVISTSLSSSMFVTGAAPNVLGLEFVSKIAGIQISWLQWFLCFLPVGVILLIIAPWLSYVLYKPEITHSEEVATWAGDELKTMGALTRREWTLIGLVLLSLGLWVFGSEVINATAVGLLAVSLMLALHVVPWKDITRYNSAWNTLVNLATLVVMANGLTRSGFIDWFAGTMSTHLEGFSPNATVIVLVLVFYFAHYLFASLSAHTATMLPVILAVGKGIPGVPMEQLCILLVLSIGIMGCLTPYATGPGVIIYGCGYVKSKDYWRLGAIFGVIYISMLLLVGWPILAMWN [P0AE74]”, the “total protein half-life in vivo” value under setting [2] amounted to 7.68 h.
For the sequence “MNNHFKCIGIVGHPRHPTALTTHEMLYRWLCTKGYEVIVEQQIAHELQLKNVKTGTLAEIGQLADLAVVVGGDGNMLGAARTLARYDIKVIGINRGNLGFLTDLDPDNAQQQLADVLEGHYISEKRFLLEAQVCQQDCQKRISTAINEVVLHPGKVAHMIEFEVYIDEIFAFSQRSDGLIISTPTGSTAYSLSAGGPILTPSLDAITLVPMFPHTLSARPLVINSSSTIRLRFSHRRNDLEISCDSQIALPIQEGEDVLIRRCDYHLNLIHPKDYSYFNTLSTKLGWSKKLF [P0A7B3]”, the “total protein half-life in vivo” value is, setting by setting: under setting [2], 4.25 ± 0.11 h; under setting [12], 5.35 ± 1.2 h; under setting [3], 6.6 ± 1.1 h; under setting [4], 4.75 ± 0.69 h; under setting [5], 3.19 ± 0.49 h; under setting [6], 5.33 ± 0.2 h. Moreover, the “total protein half-life in vivo” value is, setting by setting: under setting [7], 12.1 h; under setting [8], 4.4 ± 0.37 h; under setting [9], 7.59 h; under setting [10], 5.9 ± 0.21 h; under setting [11], 11.1 ± 0.2 h.
